From US20230143604A1, “QW DOSING OF GIP RECEPTOR AGONIST PEPTIDE COMPOUNDS AND USES THEREOF” (TAKEDA PHARMACEUTICAL COMPANY LIMITED, priority 2020, published 2023)
Starred links: 1 amine or outer side, 2 acyl side, 3 side chain; linkers in the order of their positions; H or OH if unused. Non-standard residues stand in square brackets, D forms with d. Groups on a side chain read outwards from the residue. No end group written: not given here. *: point of attachment. C18 diacid = O=C(O)CCCCCCCCCCCCCCCCC(=O)*; C17 diacid = O=C(O)CCCCCCCCCCCCCCCC(=O)*; γGlu = O=C(O)[C@H](CCC(=O)[*:2])N[*:1]; NMeY = CN[C@@H](Cc1ccc(O)cc1)C(=O)O; Stearoyl = CCCCCCCCCCCCCCCCCC(=O)*; AEEA = NCCOCCOCC(=O)O; E∗ = not defined here; K∗ = not defined here; Aib = CC(C)(N)C(=O)O

T1: full-length human GIPR with an N-terminal FLAG tag, overexpressed on HEK-293T cells (human, UniProt P48546 22-466)
T1 sequence (looked up): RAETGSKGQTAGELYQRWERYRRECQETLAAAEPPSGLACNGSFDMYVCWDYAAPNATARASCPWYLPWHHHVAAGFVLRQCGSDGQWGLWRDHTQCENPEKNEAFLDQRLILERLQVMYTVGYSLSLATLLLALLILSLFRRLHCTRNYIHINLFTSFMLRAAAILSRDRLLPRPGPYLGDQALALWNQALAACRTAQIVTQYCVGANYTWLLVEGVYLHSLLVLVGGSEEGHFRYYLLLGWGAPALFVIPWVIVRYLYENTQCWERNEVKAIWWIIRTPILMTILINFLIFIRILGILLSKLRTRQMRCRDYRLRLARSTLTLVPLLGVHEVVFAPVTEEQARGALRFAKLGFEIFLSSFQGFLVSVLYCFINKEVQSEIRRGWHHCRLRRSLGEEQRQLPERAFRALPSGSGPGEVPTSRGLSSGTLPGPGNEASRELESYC

B1: Compound No. 183 (peptide)
peptide: Me-Y[Aib]EGTFISDYSIALDR[E∗]HQ[K∗]NFVNWLLAQK([AEEA-AEEA-γGlu-C18 diacid])PSSGAPPPS-NH2
modifications: not fully specified (residue 1); reading uncertain; also: E* at 17 and K* at 20 marked, meaning not given here
B2: Compound No. 182 (peptide)
peptide: Me-Y[Aib]EGTFISDYSIALDR[Aib]HQ[E∗]NF[K∗]NWLLAQK([AEEA-AEEA-γGlu-C18 diacid])PSSGAPPPS-NH2
modifications: not fully specified (residue 1); reading uncertain; also: E* at 20 and K* at 23 marked, meaning not given here
B3: Compound No. 185 (peptide)
peptide: YXEGTFISDYSIALDRXHQXNFVNELLKQXPSSGAPPPS
modifications: N-terminal Me (Me-Tyr 1); Aib at 2, 17, 20; E* at 25 and K* at 28 (mark * as printed, not explained); Km at 30 = Lys(2OEGgE-C18DA); C-terminus NH2

Assays:
[1] = molecular target: T1, full-length human GIPR with an …; experiment: cell-based or functional assay
[2] = molecular target: full-length human GLP-1R with an N-terminal FLAG tag, overexpressed on HEK-293T cells (human, UniProt P43220 24-463); experiment: cell-based or functional assay

Row | Binder | Human GIPR cAMP EC50, HEK293T [1] [nM] | Human GLP1R cAMP EC50, HEK293T [2] [nM]
1 | [NMeY][Aib]EGTFISDYSI[Aib]LDR[Aib]AQ[Aib]K([AEEA-AEEA-γGlu-γGlu-Stearoyl])FVNWLLAQRG-OH [Compound No. 202] | 0.0042 | 2.51
2 | [NMeY][Aib]EGTFISDYSIALDR[Aib]HQ[Aib]NFVNWK([AEEA-AEEA-γGlu-C18 diacid])LAQR-NH2 [Compound No. 186] | 0.0003 | 1000
3 | B1 | 0.0007 | 162
4 | B2 | 0.0525 | 214
5 | Y[Aib]EGTFISDYSIAK([AEEA-AEEA-γGlu-C18 diacid])DKIHQQDFVNWLLAQKGKKNDWKHNITQ-OH [Compound No. 187] | 0.0032 | 562
6 | [NMeY][Aib]EGTFISDYSI[Aib]LDRAAQ[Aib]K([AEEA-AEEA-γGlu-γGlu-C18 diacid])FVNWLLAQRG-OH [Compound No. 214] | 0.0014 | 28.8
7 | [NMeY]GEGTFISDYSI[Aib]LDR[Aib]AQ[Aib]K([AEEA-AEEA-γGlu-γGlu-C18 diacid])FVNWLLAQRG-OH [Compound No. 205] | 0.0008 | 33.1
8 | [NMeY][Aib]EGTFISDYSI[Aib]LDR[Aib]AQ[Aib]K([AEEA-AEEA-γGlu-C18 diacid])FVNWLLAQRG-OH [Compound No. 208] | 0.0003 | 9.33
9 | Y[Aib]EGTFISDYSIAMDKK([AEEA-AEEA-γGlu-C18 diacid])HQQDFVNWLLAQKGKKNDWKHNITQ-OH [Compound No. 188] | 0.0019 | 132
10 | [NMeY][Aib]EGTFISDYSIALDR[Aib]HQQNFVNWLLAQK([AEEA-AEEA-γGlu-C18 diacid]) [Compound No. 191] | 0.0032 | 97.7
11 | [NMeY][Aib]EGTFISDYSIALDR[Aib]AQ[Aib]K([AEEA-AEEA-γGlu-γGlu-Stearoyl])FVNWLLAQKG-OH [Compound No. 203] | 0.0013 | 4.17
12 | [NMeY][Aib]EGTFISDYSIAK([AEEA-AEEA-γGlu-γGlu-C17 diacid])DR[Aib]AQ[Aib]NFVNWLLAQS-OH [Compound No. 192] | 0.0002 | 178
13 | [NMeY][Aib]EGTFISDYSI[Aib]LDR[Aib]HQ[Aib]K([AEEA-AEEA-γGlu-γGlu-C18 diacid])FVNWLLAQRG-OH [Compound No. 201] | 0.0009 | 61.7
14 | [NMeY][Aib]EGTFISDYSI[Aib]LDR[Aib]AQ[Aib]K([G5-γGlu-γGlu-C18 diacid])FVNWLLAQRG-OH [Compound No. 210] | 0.0003 | 10.7
15 | [NMeY][Aib]EGTFISDYSI[Aib]LDR[Aib]AQ[Aib]K([AEEA-γGlu-γGlu-C18 diacid])FVNWLLAQRG-OH [Compound No. 207] | 0.0004 | 36.3
16 | [NMeY][Aib]EGTFISDYSI[Aib]LDR[Aib]AA[Aib]K([AEEA-AEEA-γGlu-γGlu-C18 diacid])FVNWLLAQRG-OH [Compound No. 212] | 0.0003 | 42.7
17 | YXEGTFISDYSIAXDRIAQRNFVEWLLAQSPG (N-terminal Me (Me-Tyr 1); Aib at 2; Km at 14 = Lys(G5-C18DA); C-terminus OH) [Compound No. 180] | 0.0009 | 5.75
18 | H-Y[Aib]EGTFISDYSIALDRAAQ[Aib]K([AEEA-AEEA-γGlu-γGlu-C18 diacid])FVEWLLAQRG-OH [Compound No. 206] | 0.0004 | 26.3
19 | [NMeY][Aib]EGTFISDYSI[Aib]LDR[Aib]AQ[Aib]K([AEEA-AEEA-γGlu-γGlu-C18 diacid])FVNWLLAQRG-NH2 [Compound No. 204] | 0.0003 | 6.61
20 | [NMeY][Aib]EGTFISDYSIALDR[Aib]AQ[Aib]K([AEEA-AEEA-γGlu-γGlu-C17 diacid])FVNWLLAQKG-OH [Compound No. 200] | 0.0006 | 77.6
21 | [NMeY][Aib]EGTFISDYSIALDRIHQQNFVNWLLAQK([AEEA-AEEA-γGlu-C18 diacid])PSSGAPPPS-NH2 [Compound No. 190] | 0.0005 | 97.7
22 | YXEGTFISDYSIAXDRIAQRNFVEWLLAQSPSSGAPPPS (N-terminal Me (Me-Tyr 1); Aib at 2; Km at 14 = Lys(G5-C18DA); C-terminus OH) [Compound No. 179] | 0.0008 | 2.88
23 | B3 | 0.001 | 1000
